Measured values published in the Immune Epitope Database (IEDB).

What was measured:
HLA-C*14:02 = assay: IEDB peptide-MHC binding, purified MHC/direct/fluorescence; filed as Kd, often an IC50 or EC50 that approximates it; ≥ and ≤ were set here for values at or beyond the usual limits of such assays
HLA-A*02:01 = assay: as above
HLA-A*02:03 [1] = assay: as above; conditions: source organism: Bacillus cereus 03BB108
HLA-A*02:12 = assay: as above; conditions: source organism: Bacillus cereus 03BB108
HLA-B*07:02 = assay: as above
HLA-A*02:50 = assay: IEDB peptide-MHC binding, purified MHC/competitive/fluorescence; filed as Kd, often an IC50 or EC50 that approximates it; ≥ and ≤ were set here for values at or beyond the usual limits of such assays
HLA-A*01:01 = assay: IEDB peptide-MHC binding, purified MHC/direct/fluorescence; filed as Kd, often an IC50 or EC50 that approximates it; ≥ and ≤ were set here for values at or beyond the usual limits of such assays
HLA-A*02:11 = assay: as above; conditions: source organism: Mammarenavirus juninense
HLA-A*03:01 = assay: as above
HLA-A*29:02 = assay: as above; conditions: source organism: Mammarenavirus juninense
HLA-A*31:01 = assay: as above
HLA-B*18:01 = assay: as above
HLA-B*27:05 = assay: as above
HLA-B*39:01 [2] = assay: as above
HLA-B*44:02 = assay: as above
HLA-B*57:01 = assay: as above
HLA-B*58:01 = assay: as above
HLA-C*03:03 = assay: as above
HLA-A*11:01 [3] = assay: as above
HLA-A*68:02 [4] = assay: as above; conditions: source organism: Vibrio parahaemolyticus
HLA-A*69:01 = assay: as above
HLA-B*08:01 [5] = assay: as above
HLA-B*08:02 = assay: as above; conditions: source organism: Vibrio parahaemolyticus RIMD 2210633
HLA-B*15:09 = assay: as above; conditions: source organism: Vibrio parahaemolyticus RIMD 2210633
HLA-A*26:01 [6] = assay: IEDB peptide-MHC binding, purified MHC/competitive/fluorescence; filed as Kd, often an IC50 or EC50 that approximates it; ≥ and ≤ were set here for values at or beyond the usual limits of such assays; conditions: source organism: Vibrio parahaemolyticus K5030
HLA-A*26:02 = assay: as above
HLA-B*15:01 [7] = assay: as above
HLA-A*26:01 [8] = assay: IEDB peptide-MHC binding, purified MHC/direct/fluorescence; filed as Kd, often an IC50 or EC50 that approximates it; ≥ and ≤ were set here for values at or beyond the usual limits of such assays
HLA-B*15:01 [9] = assay: as above
HLA-B*40:01 [10] = assay: as above
HLA-A*24:03 = assay: as above; conditions: source organism: Yersinia pestis
HLA-B*40:01 [11] = assay: IEDB peptide-MHC binding, purified MHC/competitive/fluorescence; filed as Kd, often an IC50 or EC50 that approximates it; ≥ and ≤ were set here for values at or beyond the usual limits of such assays
HLA-B*39:01 [12] = assay: as above
HLA-B*15:17 = assay: IEDB peptide-MHC binding, purified MHC/direct/fluorescence; filed as Kd, often an IC50 or EC50 that approximates it; ≥ and ≤ were set here for values at or beyond the usual limits of such assays; conditions: source organism: Escherichia coli O157:H7
HLA-A*11:01 [13] = assay: IEDB peptide-MHC binding, purified MHC/competitive/fluorescence; filed as Kd, often an IC50 or EC50 that approximates it; ≥ and ≤ were set here for values at or beyond the usual limits of such assays; conditions: source organism: Escherichia coli str. K-12 substr. MG1655
HLA-A*68:02 [14] = assay: as above; conditions: source organism: Escherichia coli str. K-12 substr. MG1655
HLA-A*02:03 [15] = assay: as above; conditions: source organism: Homo sapiens
HLA-A*02:06 = assay: as above; conditions: source organism: Homo sapiens
HLA-A*30:01 = assay: as above; conditions: source organism: Homo sapiens
HLA-B*08:01 [16] = assay: as above; conditions: source organism: Homo sapiens
[17] = source organism: Bacillus anthracis
[18] = source organism: Mammarenavirus juninense
[19] = source organism: Vibrio parahaemolyticus
[20] = source organism: Vibrio parahaemolyticus RIMD 2210633
[21] = source organism: Vibrio parahaemolyticus K5030
[22] = source organism: Vibrio cholerae
[23] = source organism: Yersinia pestis
[24] = source organism: Escherichia coli APEC O1
[25] = source organism: Cryptosporidium parvum
[26] = source organism: Escherichia coli O139:H28 str. E24377A
[27] = source organism: Escherichia coli O157:H7

AASYARYVL
Kd (HLA-C*14:02; source organism: human gammaherpesvirus 4): 0.491 µM

AQMVWIHGV
Kd (HLA-A*02:01; [17]): 0.0013 µM | Kd (HLA-A*02:03 [1]): 0.03 µM | Kd (HLA-A*02:12): 0.071 µM | Kd (HLA-B*07:02; [17]): ≥ 20 µM | Kd (HLA-A*02:50; source organism: Bacillus anthracis str. A2012): 0.0003 µM

ASSEPHCAL
Kd (HLA-A*01:01; [18]): ≥ 20 µM | Kd (HLA-A*02:01; [18]): ≥ 20 µM | Kd (HLA-A*02:11): 0.04 µM | Kd (HLA-A*03:01; [18]): ≥ 20 µM | Kd (HLA-A*29:02): ≥ 20 µM | Kd (HLA-A*31:01; [18]): ≥ 20 µM | Kd (HLA-B*18:01; [18]): ≥ 20 µM | Kd (HLA-B*27:05; [18]): ≥ 20 µM | Kd (HLA-B*39:01 [2]; [18]): 1.07 µM | Kd (HLA-B*44:02; [18]): ≥ 20 µM | Kd (HLA-B*57:01; [18]): ≥ 20 µM | Kd (HLA-B*58:01; [18]): ≥ 20 µM | Kd (HLA-C*03:03; [18]): ≤ 0.001 µM

DMRKRIEAF
Kd (HLA-A*01:01; [19]): ≥ 20 µM | Kd (HLA-A*02:01; [19]): ≥ 20 µM | Kd (HLA-A*11:01 [3]; [19]): ≥ 20 µM | Kd (HLA-A*68:02 [4]): ≥ 20 µM | Kd (HLA-A*69:01; [19]): ≥ 20 µM | Kd (HLA-B*07:02; [19]): ≥ 20 µM | Kd (HLA-B*08:01 [5]; [20]): 0.013 µM | Kd (HLA-B*08:02): 0.171 µM | Kd (HLA-B*15:09): ≥ 20 µM | Kd (HLA-B*18:01; [20]): 0.025 µM | Kd (HLA-B*39:01 [2]; [20]): ≥ 20 µM | Kd (HLA-B*57:01; [19]): ≥ 20 µM | Kd (HLA-B*58:01; [19]): ≥ 20 µM | Kd (HLA-A*26:01 [6]): ≥ 20 µM | Kd (HLA-A*26:02; [21]): 0.0073 µM | Kd (HLA-B*15:01 [7]; [21]): ≥ 20 µM

FLHPKHWGT
Kd (HLA-A*01:01; [22]): ≥ 20 µM | Kd (HLA-A*02:01; [22]): 0.157 µM | Kd (HLA-A*03:01; [22]): ≥ 20 µM | Kd (HLA-A*11:01 [3]; [22]): ≥ 20 µM | Kd (HLA-A*26:01 [8]; [22]): ≥ 20 µM | Kd (HLA-A*31:01; [22]): ≥ 20 µM | Kd (HLA-A*69:01; [22]): 3.48 µM | Kd (HLA-B*07:02; [22]): ≥ 20 µM | Kd (HLA-B*08:01 [5]; [22]): 0.285 µM | Kd (HLA-B*15:01 [9]; [22]): ≥ 20 µM | Kd (HLA-B*27:05; [22]): ≥ 20 µM | Kd (HLA-B*40:01 [10]; [22]): ≥ 20 µM | Kd (HLA-B*44:02; [22]): ≥ 20 µM | Kd (HLA-B*58:01; [22]): ≥ 20 µM | Kd (HLA-A*02:50; source organism: Vibrio cholerae 2740-80): ≤ 0.0001 µM

FMSLQSGDV
Kd (HLA-A*01:01; [23]): ≥ 20 µM | Kd (HLA-A*02:01; [23]): ≥ 20 µM | Kd (HLA-A*03:01; [23]): ≥ 20 µM | Kd (HLA-A*11:01 [3]; [23]): ≥ 20 µM | Kd (HLA-A*24:03): ≥ 20 µM | Kd (HLA-A*26:01 [8]; [23]): ≥ 20 µM | Kd (HLA-A*31:01; [23]): ≥ 20 µM | Kd (HLA-A*69:01; [23]): 1.34 µM | Kd (HLA-B*07:02; [23]): ≥ 20 µM | Kd (HLA-B*08:01 [5]; [23]): ≥ 20 µM | Kd (HLA-B*15:01 [9]; [23]): ≥ 20 µM | Kd (HLA-B*27:05; [23]): ≥ 20 µM | Kd (HLA-B*40:01 [10]; [23]): ≥ 20 µM | Kd (HLA-B*44:02; [23]): ≥ 20 µM | Kd (HLA-B*58:01; [23]): ≥ 20 µM | Kd (HLA-A*02:50; source organism: Yersinia pestis Nepal516): 0.0025 µM

FQYYGIDWV
Kd (HLA-A*02:01; [19]): 0.0117 µM | Kd (HLA-A*69:01; [19]): 0.495 µM | Kd (HLA-A*02:50; [20]): ≤ 0.0001 µM

HESSVSWMF
Kd (HLA-B*15:01 [7]; [24]): 0.67 µM | Kd (HLA-B*40:01 [11]; [24]): 0.0011 µM

KAFPLIQNM
Kd (HLA-B*57:01; [25]): 0.124 µM | Kd (HLA-B*58:01; [25]): 0.0124 µM | Kd (HLA-C*14:02; source organism: Cryptosporidium parvum Iowa II): 0.368 µM

LQMLGENVL
Kd (HLA-B*15:01 [7]; [26]): 0.152 µM | Kd (HLA-B*39:01 [12]; [26]): 0.017 µM | Kd (HLA-B*40:01 [11]; [26]): 0.836 µM

NLPSKPVWL
Kd (HLA-A*01:01; [27]): ≥ 20 µM | Kd (HLA-A*02:01; [27]): 6.91 µM | Kd (HLA-A*03:01; [27]): ≥ 20 µM | Kd (HLA-A*31:01; [27]): ≥ 20 µM | Kd (HLA-B*07:02; [27]): 7 µM | Kd (HLA-B*15:01 [9]; [27]): ≥ 20 µM | Kd (HLA-B*15:17): ≥ 20 µM | Kd (HLA-B*18:01; [27]): ≥ 20 µM | Kd (HLA-B*27:05; [27]): ≥ 20 µM | Kd (HLA-B*57:01; [27]): ≥ 20 µM | Kd (HLA-B*58:01; [27]): ≥ 20 µM | Kd (HLA-A*11:01 [13]): ≥ 20 µM | Kd (HLA-A*26:02; source organism: Escherichia coli str. K-12 substr. MG1655): 0.565 µM | Kd (HLA-A*68:02 [14]): 3.54 µM

VAAHNAEAM
Kd (HLA-C*03:03; source organism: Leishmania major strain Friedlin): 0.002 µM

VLNETTNWL
Kd (HLA-A*69:01; source organism: West Nile virus): ≥ 20 µM | Kd (HLA-C*03:03; source organism: Japanese encephalitis virus): ≥ 20 µM

VRVCACPGR
Kd (HLA-A*02:03 [15]): ≥ 20 µM | Kd (HLA-A*02:06): 2.07 µM | Kd (HLA-A*26:02; source organism: Homo sapiens): ≥ 20 µM | Kd (HLA-A*30:01): 2.33 µM | Kd (HLA-B*08:01 [16]): ≥ 20 µM | Kd (HLA-B*39:01 [12]; source organism: Homo sapiens): ≥ 20 µM
